This is an account of results in the supplement of paper PMC9112550, “Optimization of the antimicrobial peptide Bac7 by deep mutational scanning” (BMC Biology, 2022).
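Also: peptides expressed intracellularly from a pBAD plasmid library in pooled LB shake-flask culture, induced with 0.3% L-arabinose, DNA abundance read by NGS, three biological replicates, DESeq2 with apeglm shrinkage.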

The subject of the data set is Escherichia coli TOP10. Briefly: shrunken log2 fold change of peptide-encoding DNA abundance (4.5 h post-induction vs induction); higher = less antimicrobial activity (less host growth inhibition). The settings on record: time post-induction: 4.5 h; library: site-saturation at positions 5, 18, 19, 20.
With RRIRCRPPRLPRPRPRPKISPRP, the “shrunken log2 fold change” value is -0.712.

In the case of RRIRIRPPRLPRPRPRPAIPPRP, the “shrunken log2 fold change” value is -0.169.

On to RRIRVRPPRLPRPRPRPVDIPRP, for which the “shrunken log2 fold change” value amounted to 0.0216.

Turning to RRIRTRPPRLPRPRPRPCPTPRP, the “shrunken log2 fold change” value was found to be 0.0552.

For RRIRHRPPRLPRPRPRPKCTPRP, the “shrunken log2 fold change” value is -0.0702.

In the case of RRIRLRPPRLPRPRPRPCWDPRP, the “shrunken log2 fold change” value is -0.104.

Take RRIRGRPPRLPRPRPRPIQRPRP: the “shrunken log2 fold change” value was found to be 0.0933.

RRIRHRPPRLPRPRPRPGTPPRP: the “shrunken log2 fold change” value turned out to be 0.104.

Take RRIRPRPPRLPRPRPRPEVMPRP: the “shrunken log2 fold change” value is 0.462.

For RRIRFRPPRLPRPRPRPWQGPRP, the “shrunken log2 fold change” value came to 0.00425.

RRIRIRPPRLPRPRPRPTCDPRP: the “shrunken log2 fold change” value was -0.369.

As for RRIRFRPPRLPRPRPRPISAPRP, the “shrunken log2 fold change” value amounted to 0.0624.

Turning to RRIRFRPPRLPRPRPRPPGQPRP, the “shrunken log2 fold change” value was found to be 1.

Consider RRIRVRPPRLPRPRPRPAFAPRP, for which the “shrunken log2 fold change” value was 0.666.

RRIRNRPPRLPRPRPRPMMRPRP: the “shrunken log2 fold change” value came out at 0.0611.

For the sequence RRIRFRPPRLPRPRPRPNGIPRP, the “shrunken log2 fold change” value was -0.286.

Consider RRIRTRPPRLPRPRPRPYYSPRP, for which the “shrunken log2 fold change” value was -0.274.

Consider RRIRLRPPRLPRPRPRPPWPPRP, for which the “shrunken log2 fold change” value is 0.578.

Regarding RRIRHRPPRLPRPRPRPDQEPRP, the “shrunken log2 fold change” value was -0.01.

Consider RRIRGRPPRLPRPRPRPRVWPRP, for which the “shrunken log2 fold change” value is 0.547.

Take RRIRERPPRLPRPRPRPRLDPRP: the “shrunken log2 fold change” value came to 0.0479.

For RRIRARPPRLPRPRPRPNNEPRP, the “shrunken log2 fold change” value was -0.14.

In the case of RRIRIRPPRLPRPRPRPIETPRP, the “shrunken log2 fold change” value was -0.0467.

RRIRFRPPRLPRPRPRPDIGPRP: the “shrunken log2 fold change” value is -0.0309.

As for RRIRARPPRLPRPRPRPWKCPRP, the “shrunken log2 fold change” value stood at 0.0662.

In the case of RRIRMRPPRLPRPRPRPKCIPRP, the “shrunken log2 fold change” value is -0.113.

Consider RRIRPRPPRLPRPRPRPGSDPRP, for which the “shrunken log2 fold change” value was -0.00287.

For RRIRFRPPRLPRPRPRPGTCPRP, the “shrunken log2 fold change” value is -0.161.

RRIRSRPPRLPRPRPRPSNEPRP: the “shrunken log2 fold change” value is -0.476.

RRIRHRPPRLPRPRPRPKVWPRP: the “shrunken log2 fold change” value was found to be 0.331.

Consider RRIRYRPPRLPRPRPRPKPRPRP, for which the “shrunken log2 fold change” value is 0.515.

Consider RRIRKRPPRLPRPRPRPFAVPRP, for which the “shrunken log2 fold change” value was -0.14.

For the sequence RRIRKRPPRLPRPRPRPNDWPRP, the “shrunken log2 fold change” value was determined as 0.455.

For RRIRKRPPRLPRPRPRPSYQPRP, the “shrunken log2 fold change” value was -0.52.

As for RRIRKRPPRLPRPRPRPTNCPRP, the “shrunken log2 fold change” value worked out at 0.0303.

For the sequence RRIRLRPPRLPRPRPRPDEEPRP, the “shrunken log2 fold change” value was found to be 0.138.

Take RRIRWRPPRLPRPRPRPIWMPRP: the “shrunken log2 fold change” value was -0.000467.

Take RRIRERPPRLPRPRPRPDNMPRP: the “shrunken log2 fold change” value was -0.2.

For RRIRNRPPRLPRPRPRPKVDPRP, the “shrunken log2 fold change” value is 0.147.

RRIRMRPPRLPRPRPRPFGKPRP: the “shrunken log2 fold change” value came out at 0.129.

Regarding RRIRPRPPRLPRPRPRPMTKPRP, the “shrunken log2 fold change” value turned out to be 0.0497.

Regarding RRIRTRPPRLPRPRPRPLVIPRP, the “shrunken log2 fold change” value was -0.44.

Consider RRIRGRPPRLPRPRPRPMLTPRP, for which the “shrunken log2 fold change” value is 1.04.

Take RRIRPRPPRLPRPRPRPFESPRP: the “shrunken log2 fold change” value stood at 0.17.

RRIRARPPRLPRPRPRPNDMPRP: the “shrunken log2 fold change” value is -0.00462.

With RRIRERPPRLPRPRPRPIRMPRP, the “shrunken log2 fold change” value is -0.00149.

For RRIRNRPPRLPRPRPRPCHFPRP, the “shrunken log2 fold change” value was -0.166.

Turning to RRIRYRPPRLPRPRPRPASTPRP, the “shrunken log2 fold change” value is -0.0914.

On to RRIRWRPPRLPRPRPRPNQNPRP, for which the “shrunken log2 fold change” value is -0.221.

For RRIRGRPPRLPRPRPRPVYHPRP, the “shrunken log2 fold change” value was -0.174.

Turning to RRIRERPPRLPRPRPRPYKGPRP, the “shrunken log2 fold change” value is -0.0341.

Turning to RRIRFRPPRLPRPRPRPDGAPRP, the “shrunken log2 fold change” value is -0.0432.

For the sequence RRIRIRPPRLPRPRPRPHKKPRP, the “shrunken log2 fold change” value is -0.0912.

Consider RRIRPRPPRLPRPRPRPHEWPRP, for which the “shrunken log2 fold change” value is 0.278.

On to RRIRKRPPRLPRPRPRPMWHPRP, for which the “shrunken log2 fold change” value was -0.183.

Consider RRIRARPPRLPRPRPRPMSIPRP, for which the “shrunken log2 fold change” value is -0.118.

Consider RRIRARPPRLPRPRPRPVHFPRP, for which the “shrunken log2 fold change” value worked out at 0.396.

Take RRIRERPPRLPRPRPRPSVAPRP: the “shrunken log2 fold change” value worked out at 0.132.

As to RRIRKRPPRLPRPRPRPHWDPRP, the “shrunken log2 fold change” value was determined as 0.0835.

As to RRIRRRPPRLPRPRPRPWFGPRP, the “shrunken log2 fold change” value is -0.161.

For the sequence RRIRTRPPRLPRPRPRPIGEPRP, the “shrunken log2 fold change” value is -0.195.

On to RRIRRRPPRLPRPRPRPSEFPRP, for which the “shrunken log2 fold change” value was found to be 0.00596.
